Data: patent publication US20220056137A1 (GIGAGEN, published 2022)

Assays:
[1] = target: T1, human PD-L1 protein (soluble) (human, UniProt Q9NZQ7 19-239); test: SPR, mAb captured on anti-human IgG Fc, PD-L1 as analyte;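 for koff: array SPR with mAb supernatants captured at several densities, PD-L1 injected for 5 min then 15 min dissociation, non-regenerative kinetic series, double-referenced against interspot surface and blank injection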;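 for kon: array SPR with mAb supernatants captured at several densities, PD-L1 injected for 5 min then 15 min dissociation, non-regenerative kinetic series, double-referenced against interspot surface and blank injection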
T1 construct: also called PD-L1 (R&D Systems); His-tagged PD-L1 protein
Procedure: (§1) The surface was then deactivated with 1 M ethanolamine pH 8.5 (Carterra Inc.). Running buffer used for the lawn immobilization was HBS-EPC (10 mM HEPES, 150 mM NaCl, 3 mM EDTA, 0.05% Tween 20, pH 7.4; Teknova).
(§2) The sensor chip was then transferred to a continuous flow microspotter (CFM; Carterra Inc.) for array capturing. The mAb supernatants were diluted 50-fold (3-10 mg/mL final concentration) into HBS-EPC with 1 mg/mL BSA. The samples were each captured twice with 15-minute and 4-minute capture steps on the first and second prints, respectively, to create multiple densities, using a 65 mL/min flow rate. The running buffer in the CFM was also HBS-EPC.
(§3) Next, the sensor chip was loaded onto an SPR reader (MX-96 system; Ibis Technologies) for the kinetic analysis. […] PD-L1 injections were 5 minutes with a 15-minute dissociation at 8 mL/second in a non-regenerative kinetic series. An injection of the goat anti-Human IgG Fc capture antibody at 75 mg/mL was injected at the end of the series to verify the capture level of each mAb. Binding data was double referenced by subtracting an interspot surface and a blank injection and analyzed for ka (on-rate), kd (off-rate), and KD (affinity) using the Kinetic Interaction Tool software (Carterra Inc.).

rhPD-L1-Fc = target: T2, rhPD-L1-Fc (human, UniProt Q9NZQ7 19-239, limits assumed); test: competition ELISA: plate-bound rhPD-L1-Fc, antibody titrated, competitor rhCD80-His detected
T2 construct: Recombinant human PD-L1-Fc coated on ELISA plates; not shown: Fc part

[2] = target: T3, PD-L1 expressed on CHO cells (human, UniProt Q9NZQ7 19-290); test: cell-based or functional assay
cyno PD-L1 = target: T4, cyno PD-L1 (cyno); test: BLI (Octet), antibody on AHC biosensor, cyno PD-L1 as analyte
T4 construct: Soluble analyte in BLI
Procedure: (§4) For BLI, antibodies were loaded onto an Anti-Human IgG Fc (AHC) biosensor using the Octet Red96 system (ForteBio). Loaded biosensors were dipped into antigen dilutions beginning at 300 nM, with 6 serial dilutions at 1:3. Kinetic analysis was performed using a 1:1 binding model and global fitting.

[3] = target: T1, human PD-L1 protein (soluble); test: SPR, mAb captured on anti-human IgG Fc, PD-L1 as analyte; remark: listed apart in the source;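 for koff: array SPR with mAb supernatants captured at several densities, PD-L1 injected for 5 min then 15 min dissociation, non-regenerative kinetic series, double-referenced against interspot surface and blank injection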;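 for kon: array SPR with mAb supernatants captured at several densities, PD-L1 injected for 5 min then 15 min dissociation, non-regenerative kinetic series, double-referenced against interspot surface and blank injection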
Procedure: as §1, §2, §3

[4] = target: T3, PD-L1 expressed on CHO cells; test: flow cytometry on PD-L1 expressing Flp-In CHO cells
Procedure: For cell surface binding studies, PD-L1 expressing Flp-In CHO (Thermo Fisher Scientific) cells were generated and mixed at a 50:50 ratio. One million cells were stained with 1 μg of the disclosed anti-PD-L1 recombinant antibodies in 200 μl of MACS Buffer (DPBS with 0.5% bovine serum albumin and 2 mM EDTA) for 30 minutes at 4 C. Cells were then co-stained with anti-human irrelevant target-APC and anti-human IgG Fc-PE antibodies for 30 minutes at 4 C. An anti-human PD-L1 antibody was used as a control for these mixing experiments and cell viability was assessed with DAPI. Flow cytometry analysis was conducted on a BD Influx at the Stanford Shared FACS Facility and data was analyzed using FlowJo.

[5] = target: T1, human PD-L1 protein (soluble); test: BLI (Octet), antibody on AHC biosensor, PD-L1 as analyte
Procedure: as §4

[6] = target: T1, human PD-L1 protein (soluble); test: as above; remark: listed apart in the source
Procedure: as §4

T1 sequence (Q9NZQ7 19-239 limits assumed): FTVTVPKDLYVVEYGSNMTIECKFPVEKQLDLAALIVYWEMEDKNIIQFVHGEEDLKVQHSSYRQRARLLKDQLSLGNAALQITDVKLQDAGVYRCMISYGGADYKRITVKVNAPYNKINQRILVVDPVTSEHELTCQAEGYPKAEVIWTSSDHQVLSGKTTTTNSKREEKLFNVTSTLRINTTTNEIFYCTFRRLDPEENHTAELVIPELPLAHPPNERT
T2 sequence (Q9NZQ7 19-239 limits assumed): as above
T3 sequence (Q9NZQ7 19-290 limits assumed): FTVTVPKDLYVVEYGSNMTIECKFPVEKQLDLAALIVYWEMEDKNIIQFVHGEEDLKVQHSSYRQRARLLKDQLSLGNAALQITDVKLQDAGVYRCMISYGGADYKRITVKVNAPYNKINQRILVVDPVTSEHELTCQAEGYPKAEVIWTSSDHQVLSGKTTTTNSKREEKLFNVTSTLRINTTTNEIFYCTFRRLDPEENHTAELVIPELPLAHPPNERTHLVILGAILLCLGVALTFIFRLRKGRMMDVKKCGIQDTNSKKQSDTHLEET

Binder | Kd [1] [nM] | EC50 (rhPD-L1-Fc) [µg/mL] | Promega assay antagonist (EC50, ug/mL) [2] [µg/mL] | Kd (cyno PD-L1) [nM] | Kd [3] [nM] | koff [3] [s⁻¹] | kon [3] [M⁻¹ s⁻¹] | binding result [4] | Kd [5] [nM] | koff [5] [s⁻¹] | kon [5] [M⁻¹ s⁻¹] | Kd [6] [nM]
antibody A4 (antibody, V domains shown, Tested as full-length mAb made in CHO cells; also called L4H4) VH: QVQLVESGGGVVQPGRSLRLSCAASGFTFSNYGMHWVRQAPGKGLEWVAVIWFDGNTKYYTDSVKGRFTISRDNSKNTLYLQMNSLRAEDTAVYYCARDITMVPMDVWGQGTTVTVSS VL: AIQMTQSPSSLSASVGDRVTITCRASQDIRNDLGWYQQQPGKAPKLLIYAASSLQSGVPSRFSGSGSGTDFTLTISSLQPEDFATYYCLQDYNYPPTFGQGTKVEIK | 6.4 | 1.25 | 0.198 | 11.3 | 6.25 | 0.001 | 160000 | – | – | – | – | –
antibody A8 (antibody, V domains shown, Tested as full-length mAb made in CHO cells; also called L8H8) VH: QVQLVQSGAEVKKPGASVKVSCKASGYTFTSYGISWVRQAPGQGLEWMGWISAYNGSTNYAQKLQGRVTMTTDTSTSTAYMELRSLRSDDTAVFYCARDDRIAVADYYYYFGMDVWGQGTTVTVSS VL: DIQMTQSPSSLSASVGDRVTITCRASQGIRNDLGWYQQKPGKAPKRLIYAASSLQSGVPSRFSGSGSGTEFTLTISSLQPEDFATYYCLQHNSYPYTFGQGTKLEIK | 22 | 0.46 | 0.621 | 18.9 | 22.8 | 0.013 | 570000 | – | – | – | – | –
antibody A22 (antibody, V domains shown, Tested as full-length mAb made in CHO cells; also called L22H22) VH: QVQLVQSGAEVKKPGASVKVSCKASGYTFTSYGISWVRQAPGQGLEWMGWISAYNGNTNYAQKLQGRVTMTTDTSTSTAYMELRSLRSDDTAVYYCARGFYYGSWYFDYWGQGTLVTVSS VL: DIQMTQSPSSLSASVGDRVTITCRASQGISSWLAWYQQKPEKAPKSLIYAASSLQSGVPSRFSGSGSGTDFTLTISSLQPEDFATYYCQQYNSYPPTVGGGTKVEIK | – | – | – | 38.5 | – | – | – | binds | – | – | – | –
antibody A25 (antibody, V domains shown, Derived from a mutagenesis screen of A1; Tested as full-length antibody; also called L25H25) VH: QVQLVQSGAEVKKPGASVKVSCKASGFTFTSYDINWVRQATGQGLEWMGWMHPKSGITGYAQKFQGRVTMTRNTSISTAYMELSNLSSEDTAVYFCARYNYVSGSYDYWGQGTLVTVSS VL: EIVMTQSPATLSLSPGERATLSCWASQSVSSSYLSWYQQKPGQAPRLLIYGASTRATGIPARFSGSGSGTDFTLTISSLQPEDFAVYYCQQDYYLPYTFGQGTKLEIK | – | 0.26 | 0.063 | – | – | – | – | – | 2.44 | 0.000809 | 331000 | 2.4
antibody A5 (antibody, V domains shown, Tested as full-length mAb made in CHO cells; also called L5H5) VH: QVQLVESGGGVVQPGRSLRLSCAASGFAFSSYGMHWVRQAPGKGLEWVALIWFDGNNKFYADSVKGRFTISRDNSKNTLYLQMNSLRAEDTAVYYCARDTTAASFDYWGQGTLVTVSS VL: EIVMTQSPATLSLSPGERATLSCRASQSVSSTYLSWYQQKPGQAPRLLIFGASTRATGIPARFSGSGSGTDFTLTISSLQPEDFAVYYCQQDYNLPPTFGPGTKVDIK | 15 | 0.97 | 0.0985 | 8.6 | 14.6 | 0.0086 | 590000 | – | – | – | – | –
antibody A7 (antibody, V domains shown, Tested as full-length mAb made in CHO cells; also called L7H7) VH: QVQLQESGPGLVKPSETLSLTCTVSGGSISSYYWSWIRQPPGKGLEWIGYIFYSGSTNYNPSLKSRVTISVDTSKNQFSLKLSSVTAADTAVYFCARDNWHDGGVDYWGQGTLVTVSS VL: EIVMTQSPTTLSLSPGERATLSCRASQSVSSSYLSWYQQKPGQAPRLLIYGASTRATGIPARFSGSGSGTDFTLTISSLQPEDFAVYYCQQDYNLRTFGQGTKVEIK | 17 | 1.88 | 0.151 | 23 | 16.7 | 0.0095 | 570000 | – | – | – | – | –
